Columns and labels:
[1] = system: RACPP with substrate PLGLEEA
[2] = system: RACPP with substrate PLGC(me)AG
[3] = system: RACPP with substrate TIAHLA
[4] = system: RACPP with substrate GVAYSGA
[5] = system: RACPP with substrate RLQLK(Ac)L
[6] = system: RACPP with substrate TGRAAA
[7] = system: RACPP with substrate YGRAAA

Sequence of MMP-9 (chain, as listed by the source): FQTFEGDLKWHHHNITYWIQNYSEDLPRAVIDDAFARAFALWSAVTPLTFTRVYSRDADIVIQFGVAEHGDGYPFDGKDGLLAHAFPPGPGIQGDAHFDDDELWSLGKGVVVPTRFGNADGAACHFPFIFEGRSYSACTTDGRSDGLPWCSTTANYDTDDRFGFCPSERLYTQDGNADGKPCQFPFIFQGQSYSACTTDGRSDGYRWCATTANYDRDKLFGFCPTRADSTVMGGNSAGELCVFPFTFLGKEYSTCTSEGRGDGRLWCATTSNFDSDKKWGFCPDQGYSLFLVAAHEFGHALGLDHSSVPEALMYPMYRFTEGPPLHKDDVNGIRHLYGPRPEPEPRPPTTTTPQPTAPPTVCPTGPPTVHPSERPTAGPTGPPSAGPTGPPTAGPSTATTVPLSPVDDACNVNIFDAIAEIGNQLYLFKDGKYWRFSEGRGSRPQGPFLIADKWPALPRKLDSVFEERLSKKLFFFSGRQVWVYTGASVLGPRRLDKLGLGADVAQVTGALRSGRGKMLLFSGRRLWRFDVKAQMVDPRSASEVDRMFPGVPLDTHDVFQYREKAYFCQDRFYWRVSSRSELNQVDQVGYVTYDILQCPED

Substance | Kcat/Km [1] | Kcat/Km [2] | Kcat/Km [3] | Kcat/Km [4] | Kcat/Km [5] | Kcat/Km [6] | Kcat/Km [7]
MMP-9 | 1480 | 13500 |  |  |  |  | 
Elastase |  | 4000 | 18200 | 4550 | 13400 | 349 | 943

Source: US20220288223
